# B1: humanized TSC249 (huVL-VH#2 107-1A4 scFv-Fc-DRA222 scFv) (bispecific antibody)
# chain: DIQMTQSPSAMSASVGDRVTITCRASKSISKYLAWFQQKPGKVPKLRIHSGSTLQSGVPSRFSGSGSGTEFTLTISSLQPEDFATYYCQQHIEYPWTFGQGTKVEIKRGGGGSGGGGSGGGGSQVQLVQSGAEVKKPGASVKVSCKASGYTFTDYYMHWVRQAPGQGLEWMGYFNPYNDYTRYAQKFQGRVTMTRDTSISTAYMELSSLRSDDTAVYYCARSDGYYDAMDYWGQGTTVTVSSSEPKSSDKTHTCPPCPAPEAAGAPSVFLFPPKPKDTLMISRTPEVTCVVVDVSHEDPEVKFNWYVDGVEVHNAKTKPREEQYNSTYRVVSVLTVLHQDWLNGKAYACAVSNKALPAPIEKTISKAKGQPREPQVYTLPPSRDELTKNQVSLTCLVKGFYPSDIAVEWESNGQPENNYKTTPPVLDSDGSFFLYSKLTVDKSRWQQGNVFSCSVMHEALHNHYTQKSLSLSPGQRHNNSSLNTGTQMAGHSPNSQVQLVESGGGVVQPGRSLRLSCKASGYTFTRSTMHWVRQAPGQGLEWIGYINPSSAYTNYNQKFKDRFTISADKSKSTAFLQMDSLRPEDTGVYFCARPQVHYDYNGFPYWGQGTPVTVSSGGGGSGGGGSGGGGSAQDIQMTQSPSSLSASVGDRVTMTCSASSSVSYMNWYQQKPGKAPKRWIYDSSKLASGVPARFSGSGSGTDYTLTISSLQPEDFATYYCQQWSRNPPTFGGGTKLQITSSS
# Molecular target: prostate-specific membrane antigen (PSMA) (human, UniProt Q04609 1-750)
# Sequence (Q04609 whole entry): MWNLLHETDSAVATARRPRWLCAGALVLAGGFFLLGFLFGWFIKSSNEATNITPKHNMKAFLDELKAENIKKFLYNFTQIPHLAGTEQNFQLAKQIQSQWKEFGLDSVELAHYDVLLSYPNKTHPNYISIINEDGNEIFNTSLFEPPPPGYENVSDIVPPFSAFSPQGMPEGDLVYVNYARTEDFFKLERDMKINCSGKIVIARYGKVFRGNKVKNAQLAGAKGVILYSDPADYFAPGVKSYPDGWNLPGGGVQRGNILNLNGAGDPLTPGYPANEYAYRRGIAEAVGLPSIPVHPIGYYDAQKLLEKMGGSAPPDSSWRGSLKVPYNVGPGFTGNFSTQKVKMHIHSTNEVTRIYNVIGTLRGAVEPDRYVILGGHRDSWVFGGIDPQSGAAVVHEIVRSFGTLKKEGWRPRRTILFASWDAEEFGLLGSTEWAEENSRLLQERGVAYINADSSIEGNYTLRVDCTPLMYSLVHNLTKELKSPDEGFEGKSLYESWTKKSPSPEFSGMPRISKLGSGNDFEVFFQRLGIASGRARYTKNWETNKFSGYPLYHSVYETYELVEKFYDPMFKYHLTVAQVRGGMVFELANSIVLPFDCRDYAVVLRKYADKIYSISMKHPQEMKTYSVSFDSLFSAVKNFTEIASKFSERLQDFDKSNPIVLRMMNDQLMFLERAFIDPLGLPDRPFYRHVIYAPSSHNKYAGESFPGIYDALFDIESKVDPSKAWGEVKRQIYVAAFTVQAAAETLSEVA
# Experiment: cell-based or functional assay
binder,measurement,value
B1,"EC50 of % live cells, GFP-LNCaP growth inhibition assay, 4 days with primary human T-cells (3:1)",15 pM
same,"EC50 of % specific lysis, 51Cr release assay, 4 hours, untreated 22Rv1 target cells with donor T-cells (5:1)",0.8 pM

# From US20180022819A1 (APTEVO RESEARCH AND DEVELOPMENT, published 2018)
